Test results from patent publication US7968306B2 (Wisconsin Alumni Research Foundation, priority 2002, dated 2011).

Tests used:
[1] = molecular target: T1, porcine pancreatic lipase (Sus scrofa, UniProt P00591); experiment: Fluorescent assay of lipase after PLC reaction; type: biochemical; details: FIG. 42
T1 construct: purchased Sigma; host or cells: porcine pancreas
T1 sequence (P00591 1-450): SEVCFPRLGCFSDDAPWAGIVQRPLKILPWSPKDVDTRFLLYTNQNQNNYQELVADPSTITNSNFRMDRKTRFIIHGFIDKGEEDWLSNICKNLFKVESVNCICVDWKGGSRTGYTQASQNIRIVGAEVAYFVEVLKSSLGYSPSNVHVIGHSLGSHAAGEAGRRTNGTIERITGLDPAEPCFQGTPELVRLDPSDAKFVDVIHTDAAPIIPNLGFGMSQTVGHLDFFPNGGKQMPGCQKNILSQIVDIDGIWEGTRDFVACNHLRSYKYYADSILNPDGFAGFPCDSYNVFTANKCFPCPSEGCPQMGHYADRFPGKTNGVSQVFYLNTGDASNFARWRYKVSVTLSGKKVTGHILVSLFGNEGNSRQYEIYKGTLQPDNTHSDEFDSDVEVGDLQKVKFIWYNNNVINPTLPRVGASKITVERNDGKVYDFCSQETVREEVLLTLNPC

[2] = molecular target: porcine pancreatic PLA2 (Sus scrofa, UniProt P00592); experiment: Continuous fluorescent assay of PLA2 (Bis-BODIPY FL C11-PC labeled DOPC-PG liposomes); details: for loss of activity after treating the protein in boiling water: boiling water for 5 min; for TFI: 5 ng PLA2, 37° C., 2 min; for TFI / % of control: truncated α1-AT 6 μg, intact α1-AT 20 μg, albumin 20 μg
[3] = molecular target: PLC (Clostridium perfringens) (Clostridium perfringens, UniProt P0C216)
[4] = molecular target: T2, pancreatic PLA2 (Sus scrofa, UniProt P00592); experiment: Radioactive assay of PLA2 (14C-labeled liposomes); type: biochemical, porcine; details: 10 μg rabbit lung annexin, FIG. 25
T2 construct: purchased Sigma Chemical (St. Louis, Mo.); host or cells: porcine pancreas
Protocol: Radioactive assay of PLA2. […] In some tests, 25-100 μg of CF BALF proteins, or 10 μg of rabbit lung annexin I or annexin VIII or both were added to the reaction mixture as specified. The reaction was carried out at room temperature for 30 sec and stopped by adding 2 ml of chloroform:methanol (1:2 vol) followed by addition of 0.4 ml water, and 10 μl of egg PC and lysoPC (20 nmol) which was used as carrier. The test tube was stirred using a Vortex. Lipids were extracted by adding additional 0.6 ml water and 0.6 ml chloroform. After agitating on a vortex, the mixture was centrifuged at 2,000 rpm for 10 min. The chloroform layer was withdrawn and transferred to a new test tube using a Pasteur pipette. Chloroform was evaporated to dryness under a flow of nitrogen. PC and lysoPC were isolated by the methods of silica gel thin-layer chromatography (TLC) using a developing solvent system of chloroform/methanol/water in a ratio of 65/45/5 as described previously (41). Lipids on the TLC plate were visualized by exposure of the TLC plate in an iodine tank. […] Radioactivity in the vial was determined by using a beta scintillation counter. PLA2 activity was expressed as either decrease in PC radioactivity or increase in fatty acid or lysoPC radioactivity as described previously (41).

[5] = with lysoPC (9 nmol), control LysoPC + PLA2
[6] = without lysoPC, control PLA2 (5 ng)

porcine pancreatic PLA2, sequence (P00592 23-146): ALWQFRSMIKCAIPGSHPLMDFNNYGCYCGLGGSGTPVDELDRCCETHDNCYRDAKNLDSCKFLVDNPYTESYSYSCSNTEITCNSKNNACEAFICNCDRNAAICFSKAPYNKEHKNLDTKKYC
T2 sequence (P00592 23-146): as above

Molecule	effect on lipase activity [1]	loss of activity after treating the protein in boiling water [2]	TFI ([2]; with lysoPC (9 nmol))	% of control [2, 5]	TFI ([2]; without lysoPC)	% of control [2, 6]	effect on PLC activity [3]	inhibition of PLA2 and PLA2-s activities [4]	also measured
Intact α1-AT: intact 52 kDa human serum α1-AT; serum PLA2-s (protein-II) purified from human serum	no effect on the lipase activity	less than 20%	29.81	151.4%	68.96	183.3%	effectively inhibited PLC activity		effect on PLA2 activity ([2]; wide range of protein concentrations): exhibited only PLA2-stimulating activity
Human serum α1-AT: human serum α1-AT obtained from Sigma Chemical Co.		not affected					inhibited PLC activity		effect of commercial α1-AT on PLA2 activity ([2]; Sigma product, FIG. 44A): stimulated PLA2 activity
annexin I: native rabbit lung annexin I protein (protein, UniProt P51662 2-346, looked up) Annexin A1: AMVSEFLKQAWFIDNEEQDYINTVKTYKGGPGSAVSPYPAFNPSSDVAALHQAIMVKGVDEATIIDILTKRNNAQRQQIKAAYLQEKGKPLDEVLKKALTGHLEEVVLALLKTPAQFDADELRAAMKGLGTDEDTLIEILASRNNKEIREINRVYREELKRDLAKDIASDTSGDFQKALLSLAKGDRSEDFGVNEDLADTDARALYEAGERRKGADVNVFTTILTTRSYLHLRRVFQKYSKYSQHDMNKVLDLELKGDIEKCLTAIVQCATCKPAYFAEKLYQAMKGAGTRHKALIRIMVSRSEVDMNDIKAFYQKKYGVSLCQAILDETKGDYEKILVALCGGN								significantly inhibited	inhibition of PLA2 activity and of the effect of truncated α1-AT on PLA2 stimulation ([2]; fluorescent assay, FIG. 46B): markedly inhibited
Truncated α1-AT: 48 kDa truncated human α1-AT (16His to 357Pro) isolated from heat-treated CF BALF; PLA2 stimulator (protein, listed as Homo sapiens) HDQDHPTFDKITPDLAEFAFSLYRQLAHQSDSTNIFFSPVSIAAAFAMLSLGAKGDTHDEILEGLNFNLTEIPEAQIHEGFQELLRTLNQPDSQLQLTTGNGLFLSEFLKLFDKFLEDFKKLYHSEAFTVNFGTDEEAKKQINDYVEKGTQGKIVNLVKELDRDTVFALVNYIFFKGKWERPFEVKDTEEEDFHVDQVTTVKVPMMKRLGMFNIQHCKKLSSWVLLMKYLGNATAIFFLPDEGKLQHLENELTHDIITKFLENEDRRSASLHLPKLSITGTYDLKSVLGQLGITKVFSNGADLSGVTEEAPLKLSKAVHKAVLTIDEKGTEAAGAMFLEAIP	no effect on the lipase activity	heat stable	31.82	161.6%	57.23	152.1%	effectively inhibited PLC activity		effect of isolated PLA2-s on pancreatic PLA2 activity ([2]; 6 μg PLA2-s, FIG. 29B): exhibited PLA2-stimulating activity; effect on PLA2 activity with 50% PC-50% PG liposomes ([2]; 6 μg truncated α1-AT, 37° C.): markedly stimulated; effect on PLA2 activity with 90% PC-10% PG liposomes ([2]; 6 μg truncated α1-AT, 37° C.): did not significantly enhance the PLA2 activity; effect on PLA2 activity with 100% PC liposomes ([2]; 6 μg truncated α1-AT, 37° C.): did not stimulate PLA2 activity
annexin VIII: native rabbit lung annexin VIII protein (protein, UniProt O97529 1-327, looked up) Annexin A8: MAWWKAWVEQEGVTVKGSPHFNPVPDAETLYKAMKGIGTNEQAIIDVLTRRSSAQRQQIAKSFKAQFGSDLTETLKSELSGKFERLIVALMYPPYRYEAKELHDAMKGLGTKEGVIIEILASRTKNQLQEIMKAYEEDYGSSLEEDIQADTSGYLERILVCLLQGSRDDVTGFVDPGLALQDAQDLYAAGEKICGTDEMKFITILCTRSARHLMRVFEEYEKIANKSIEDSIKSETHGSLEEAMLTIVKCTRNLHCYFAERLHYAMKGAGTLDGTLIRNIVSRSEIDLNLIKGHYKKMYGKTLSSMIMEDTSGDYKNALLSLVGSDP								significantly inhibited	
